The values below are quoted from earlier work in PMC12990809.

Common to all, as to assay: pulldown
Common to all, as to settings: 20 nM protein, 1.5 uM RNA pool; 20 mM HEPES pH 7.8, 70 mM KCl, 10 mM NaCl, 10% glycerol, 2 mM DTT, 0.1 ug/uL BSA; 30 min, 4 C (protocol of this paper; not …); cited from earlier work

In data set [1] the target is T1, RO3G_00049 (Rhizopus oryzae) (UniProt I1BGL5).
T1 sequence: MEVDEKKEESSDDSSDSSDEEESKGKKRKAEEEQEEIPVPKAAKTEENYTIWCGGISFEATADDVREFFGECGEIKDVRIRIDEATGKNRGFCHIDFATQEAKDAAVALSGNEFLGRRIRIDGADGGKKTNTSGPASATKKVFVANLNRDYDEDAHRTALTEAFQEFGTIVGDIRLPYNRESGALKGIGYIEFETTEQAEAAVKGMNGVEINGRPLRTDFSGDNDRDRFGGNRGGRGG

Data set [2] addresses T2, TVAG_302220 (Trichomonas vaginalis) (UniProt A2EGP7).
T2 sequence: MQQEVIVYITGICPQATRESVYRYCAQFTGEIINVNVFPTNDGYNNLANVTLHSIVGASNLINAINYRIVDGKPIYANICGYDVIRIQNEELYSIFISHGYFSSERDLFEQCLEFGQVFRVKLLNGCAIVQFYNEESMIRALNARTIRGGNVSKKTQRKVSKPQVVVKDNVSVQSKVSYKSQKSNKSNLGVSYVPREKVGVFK

Data set [3] addresses T3, PF13_0315 (Plasmodium falciparum) (UniProt Q8IDB7).
T3 sequence: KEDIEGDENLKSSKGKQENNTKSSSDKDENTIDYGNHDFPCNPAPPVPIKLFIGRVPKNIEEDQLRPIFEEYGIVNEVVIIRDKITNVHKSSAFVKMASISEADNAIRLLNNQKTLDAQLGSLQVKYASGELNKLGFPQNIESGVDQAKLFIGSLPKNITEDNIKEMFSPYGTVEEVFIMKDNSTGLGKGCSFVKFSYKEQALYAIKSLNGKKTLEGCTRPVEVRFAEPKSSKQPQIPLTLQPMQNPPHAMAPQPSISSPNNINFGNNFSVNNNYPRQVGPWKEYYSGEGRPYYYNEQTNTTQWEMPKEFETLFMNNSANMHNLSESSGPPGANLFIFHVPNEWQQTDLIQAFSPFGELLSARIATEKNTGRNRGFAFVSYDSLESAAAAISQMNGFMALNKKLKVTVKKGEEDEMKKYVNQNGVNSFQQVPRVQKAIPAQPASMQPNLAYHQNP

Data set [4] has as its target T4, Thaps1841 (Thalassiosira pseudonana) (UniProt B8BS34).
T4 sequence: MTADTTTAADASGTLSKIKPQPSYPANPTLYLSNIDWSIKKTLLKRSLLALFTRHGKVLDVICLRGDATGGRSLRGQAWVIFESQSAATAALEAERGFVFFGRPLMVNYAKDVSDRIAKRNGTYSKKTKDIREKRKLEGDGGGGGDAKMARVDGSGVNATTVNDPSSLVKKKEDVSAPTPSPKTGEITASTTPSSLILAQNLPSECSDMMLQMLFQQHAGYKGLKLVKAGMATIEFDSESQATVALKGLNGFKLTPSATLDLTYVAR

The target in data set [5] is T5, Tb927.3.3930 N185S (Trypanosoma brucei) (UniProt Q57WC9).
T5 sequence: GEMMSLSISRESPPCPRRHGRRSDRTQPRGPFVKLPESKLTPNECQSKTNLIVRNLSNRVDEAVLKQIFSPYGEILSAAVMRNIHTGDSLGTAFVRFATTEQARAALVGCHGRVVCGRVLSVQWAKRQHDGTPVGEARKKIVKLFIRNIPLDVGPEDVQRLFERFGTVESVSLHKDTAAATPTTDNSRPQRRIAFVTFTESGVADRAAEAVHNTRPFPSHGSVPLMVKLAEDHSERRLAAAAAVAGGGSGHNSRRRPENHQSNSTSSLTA

Data set [6] deals with T6, Tb927.8.6650 (Trypanosoma brucei) (UniProt Q57TU8).
T6 sequence: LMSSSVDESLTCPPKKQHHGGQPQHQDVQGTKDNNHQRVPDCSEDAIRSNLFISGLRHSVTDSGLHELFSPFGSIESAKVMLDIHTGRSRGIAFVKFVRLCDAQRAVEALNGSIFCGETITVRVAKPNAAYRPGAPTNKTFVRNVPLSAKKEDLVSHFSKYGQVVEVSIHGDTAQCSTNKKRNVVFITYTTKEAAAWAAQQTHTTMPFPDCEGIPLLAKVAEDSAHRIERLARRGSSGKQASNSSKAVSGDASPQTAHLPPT

Data set [7] addresses T7, Tb09.211.0560 (Trypanosoma brucei) (UniProt Q38EA2).
T7 sequence: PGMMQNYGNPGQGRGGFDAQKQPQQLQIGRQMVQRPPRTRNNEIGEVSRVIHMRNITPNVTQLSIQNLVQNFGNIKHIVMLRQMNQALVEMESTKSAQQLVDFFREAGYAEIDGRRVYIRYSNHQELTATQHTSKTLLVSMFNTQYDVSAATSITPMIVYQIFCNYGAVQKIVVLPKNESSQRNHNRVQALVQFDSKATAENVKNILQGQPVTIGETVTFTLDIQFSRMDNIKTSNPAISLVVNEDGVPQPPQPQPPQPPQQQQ

The next data set addresses T8, sf3b4 (Danio rerio) (UniProt A0ACM8Q308).
T8 sequence: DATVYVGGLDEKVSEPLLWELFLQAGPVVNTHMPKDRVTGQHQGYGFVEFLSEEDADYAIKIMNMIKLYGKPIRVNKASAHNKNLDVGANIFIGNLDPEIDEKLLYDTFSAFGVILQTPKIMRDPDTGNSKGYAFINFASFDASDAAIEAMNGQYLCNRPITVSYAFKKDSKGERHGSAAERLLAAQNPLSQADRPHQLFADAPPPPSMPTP

For data set [8], the target named is T9, Tb927.7.5380 (Trypanosoma brucei) (UniProt Q582F3).
T9 sequence: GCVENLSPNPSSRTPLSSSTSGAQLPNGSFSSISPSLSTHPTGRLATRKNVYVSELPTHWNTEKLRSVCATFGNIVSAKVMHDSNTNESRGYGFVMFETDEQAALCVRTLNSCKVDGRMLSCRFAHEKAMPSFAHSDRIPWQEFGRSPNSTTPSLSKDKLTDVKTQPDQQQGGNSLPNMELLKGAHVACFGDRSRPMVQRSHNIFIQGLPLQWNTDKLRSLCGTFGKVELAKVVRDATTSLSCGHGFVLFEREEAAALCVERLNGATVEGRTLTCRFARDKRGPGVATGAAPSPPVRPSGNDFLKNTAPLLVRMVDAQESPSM

Data set [9] concerns the target T10, PF10_0068 (Plasmodium falciparum) (UniProt Q8IJX3).
T10 sequence: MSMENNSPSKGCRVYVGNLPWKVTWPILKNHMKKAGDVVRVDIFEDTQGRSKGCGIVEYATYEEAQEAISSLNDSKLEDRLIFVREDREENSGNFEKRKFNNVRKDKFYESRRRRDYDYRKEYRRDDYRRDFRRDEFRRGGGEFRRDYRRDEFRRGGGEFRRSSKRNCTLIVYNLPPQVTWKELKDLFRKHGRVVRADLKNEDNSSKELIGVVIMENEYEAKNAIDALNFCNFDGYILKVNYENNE

Data set [10] addresses T11, PFI1435w (Plasmodium falciparum) (UniProt C0H570).
T11 sequence: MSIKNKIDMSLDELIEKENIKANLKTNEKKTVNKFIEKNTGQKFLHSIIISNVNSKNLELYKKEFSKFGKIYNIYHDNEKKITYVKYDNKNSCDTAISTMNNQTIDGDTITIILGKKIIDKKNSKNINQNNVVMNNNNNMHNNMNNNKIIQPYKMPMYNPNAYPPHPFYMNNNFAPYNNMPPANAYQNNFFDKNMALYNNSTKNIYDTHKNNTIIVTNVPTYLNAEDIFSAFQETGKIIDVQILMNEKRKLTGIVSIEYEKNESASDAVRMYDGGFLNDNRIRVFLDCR

The target in data set [11] is T12, LmjF.32.0750 (Leishmania major) (UniProt Q4Q5K7).
T12 sequence: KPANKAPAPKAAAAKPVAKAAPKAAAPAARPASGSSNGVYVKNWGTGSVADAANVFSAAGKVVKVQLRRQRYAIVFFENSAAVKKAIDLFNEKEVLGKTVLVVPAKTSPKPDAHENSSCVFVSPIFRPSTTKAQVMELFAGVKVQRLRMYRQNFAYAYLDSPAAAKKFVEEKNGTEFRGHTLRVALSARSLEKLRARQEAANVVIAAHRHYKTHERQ

In data set [12] the target is T13, LmjF.18.0180 (Leishmania major) (UniProt Q4QE24).
T13 sequence: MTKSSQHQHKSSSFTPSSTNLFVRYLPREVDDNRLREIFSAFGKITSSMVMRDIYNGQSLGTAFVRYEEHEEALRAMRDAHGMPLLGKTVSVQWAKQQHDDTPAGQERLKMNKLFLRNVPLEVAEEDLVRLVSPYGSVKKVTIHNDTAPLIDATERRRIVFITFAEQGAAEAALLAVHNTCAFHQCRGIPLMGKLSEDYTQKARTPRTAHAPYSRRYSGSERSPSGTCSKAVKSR

Data set [13] has as its target T14, e_gw1.81.40.1 (Physcomitrella patens) (UniProt A0A2K1J988).
T14 sequence: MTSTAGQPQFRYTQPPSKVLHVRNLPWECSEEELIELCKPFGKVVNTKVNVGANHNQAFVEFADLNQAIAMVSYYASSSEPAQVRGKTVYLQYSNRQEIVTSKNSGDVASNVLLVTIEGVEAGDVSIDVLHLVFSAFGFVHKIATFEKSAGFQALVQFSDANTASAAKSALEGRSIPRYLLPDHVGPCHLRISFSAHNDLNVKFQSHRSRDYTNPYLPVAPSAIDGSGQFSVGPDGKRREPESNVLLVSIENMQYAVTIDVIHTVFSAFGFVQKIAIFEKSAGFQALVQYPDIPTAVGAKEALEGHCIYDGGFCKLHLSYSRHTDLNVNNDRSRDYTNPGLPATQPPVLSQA

Data set [14] deals with T15, PFI1695c (Plasmodium falciparum) (UniProt Q8I2G9).
T15 sequence: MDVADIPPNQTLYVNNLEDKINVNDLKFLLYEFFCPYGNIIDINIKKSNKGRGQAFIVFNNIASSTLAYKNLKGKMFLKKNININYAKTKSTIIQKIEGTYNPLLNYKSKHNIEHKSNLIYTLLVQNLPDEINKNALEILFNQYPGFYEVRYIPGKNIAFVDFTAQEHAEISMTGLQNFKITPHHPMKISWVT

Data set [15] has as its target T16, MAL8P1.40 (Plasmodium falciparum) (UniProt Q8IB66).
T16 sequence: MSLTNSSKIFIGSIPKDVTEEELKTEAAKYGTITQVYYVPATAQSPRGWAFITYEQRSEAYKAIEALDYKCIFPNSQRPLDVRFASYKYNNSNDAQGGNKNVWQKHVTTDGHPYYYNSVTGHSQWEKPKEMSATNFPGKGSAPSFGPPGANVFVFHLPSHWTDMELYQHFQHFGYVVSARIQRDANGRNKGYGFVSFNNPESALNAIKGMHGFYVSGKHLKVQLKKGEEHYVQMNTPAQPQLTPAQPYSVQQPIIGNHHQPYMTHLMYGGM

Data set [16] has as its target T17, NCU08034 (Neurospora crassa) (UniProt Q7SAK7).
T17 sequence: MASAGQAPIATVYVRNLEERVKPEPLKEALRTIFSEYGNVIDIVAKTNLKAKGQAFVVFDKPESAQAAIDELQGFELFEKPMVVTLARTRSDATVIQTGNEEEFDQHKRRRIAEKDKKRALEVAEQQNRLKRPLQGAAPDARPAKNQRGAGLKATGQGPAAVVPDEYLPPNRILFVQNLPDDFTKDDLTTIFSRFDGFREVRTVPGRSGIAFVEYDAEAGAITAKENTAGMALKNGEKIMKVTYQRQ

The target of another data set is Pcbp3 (Mus musculus) (UniProt P57722).
Sequence of Pcbp3 (Mus musculus) (P57722 33-371): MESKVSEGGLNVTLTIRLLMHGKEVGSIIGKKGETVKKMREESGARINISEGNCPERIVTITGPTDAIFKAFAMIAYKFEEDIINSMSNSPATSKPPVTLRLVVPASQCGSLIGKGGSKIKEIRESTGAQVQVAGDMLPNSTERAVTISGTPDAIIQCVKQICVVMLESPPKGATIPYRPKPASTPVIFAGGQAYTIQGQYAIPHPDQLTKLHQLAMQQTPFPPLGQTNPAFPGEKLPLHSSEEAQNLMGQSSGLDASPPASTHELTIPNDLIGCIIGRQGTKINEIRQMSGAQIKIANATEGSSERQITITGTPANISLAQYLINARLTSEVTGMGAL

Regarding AGGGGAA [RNAcompete motif RNCMPT00205], in data set [1], the binding signal (z-score (mean of top ten 7-mers)) is 9.5.
On to CAAUAA [RNAcompete motif RNCMPT00226], for which the binding signal (z-score (mean of top ten 7-mers)) in data set [2] was 12.9.
In the case of UUACAU [RNAcompete motif RNCMPT00200], the binding signal (z-score (mean of top ten 7-mers)) in data set [3] is 7.45.
Consider ACACGC [RNAcompete motif RNCMPT00225], for which, in data set [4], the binding signal (z-score (mean of top ten 7-mers)) is 6.33.
With CAUUGU [RNAcompete motif RNCMPT00216], the binding signal (z-score (mean of top ten 7-mers)) in data set [5] was 18.7.
For UAUACU [RNAcompete motif RNCMPT00219], in [6], the binding signal (z-score (mean of top ten 7-mers)) is 15.8.
For the sequence CUUUCU [RNAcompete motif RNCMPT00220], the binding signal (z-score (mean of top ten 7-mers)) in data set [7] is 6.05.
On to CAAAAG [RNAcompete motif RNCMPT00224], for which the binding signal (z-score (mean of top ten 7-mers)) in the data set with sf3b4 (Danio rerio) is 28.4.
As to UUAUU [RNAcompete motif RNCMPT00218], in [8], the binding signal (z-score (mean of top ten 7-mers)) was 7.15.
On to GGAGGA [RNAcompete motif RNCMPT00199], for which the binding signal (z-score (mean of top ten 7-mers)) in data set [9] was 8.55.
As for UUUUUU [RNAcompete motif RNCMPT00202], the binding signal (z-score (mean of top ten 7-mers)) in data set [10] was 6.28.
Turning to UACACG [RNAcompete motif RNCMPT00223], in [11], the binding signal (z-score (mean of top ten 7-mers)) was 10.4.
On to CAUUUU [RNAcompete motif RNCMPT00212], for which, in data set [12], the binding signal (z-score (mean of top ten 7-mers)) is 30.2.
As to AACCUUU [RNAcompete motif RNCMPT00206], the binding signal (z-score (mean of top ten 7-mers)) in data set [13] was 6.39.
CCUGCAC [RNAcompete motif RNCMPT00203]: the binding signal (z-score (mean of top ten 7-mers)) in [14] is 9.07.
For the sequence AUACAUG [RNAcompete motif RNCMPT00197], in data set [15], the binding signal (z-score (mean of top ten 7-mers)) was 14.8.
Consider AGCACA [RNAcompete motif RNCMPT00209], for which, in data set [16], the binding signal (z-score (mean of top ten 7-mers)) is 11.1.
For CUUUCC [RNAcompete motif RNCMPT00215], in the data set with Pcbp3 (Mus musculus), the binding signal (z-score (mean of top ten 7-mers)) is 6.23.
